Assay results as given in article PMC9583076.

Biological target: Individual alanine mutations of these three residues (HTR2B S455, S456 and S457)
Assay: FRET or BRET

Chain of N-terminal Venus-tagged β-arrestin-1 (P49407 whole entry): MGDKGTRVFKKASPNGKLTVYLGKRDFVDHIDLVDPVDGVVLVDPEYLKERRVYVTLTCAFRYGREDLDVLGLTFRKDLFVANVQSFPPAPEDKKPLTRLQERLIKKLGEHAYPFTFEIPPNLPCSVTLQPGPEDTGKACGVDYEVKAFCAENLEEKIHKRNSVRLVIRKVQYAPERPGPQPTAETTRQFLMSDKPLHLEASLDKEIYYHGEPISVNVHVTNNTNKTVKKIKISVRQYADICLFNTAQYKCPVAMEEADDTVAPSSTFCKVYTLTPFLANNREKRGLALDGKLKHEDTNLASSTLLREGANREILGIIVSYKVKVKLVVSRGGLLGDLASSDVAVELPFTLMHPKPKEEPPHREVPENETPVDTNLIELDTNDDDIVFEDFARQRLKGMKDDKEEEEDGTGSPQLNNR

**Q.** “N-terminal Venus-tagged β-arrestin-1 (from UniProt P49407 1-418) (natural protein)” was tested. Which reduction of Emax of β-arrestin-1 recruitment against WT did it give?
**A.** 30 to 50%
